Test results published in the supplement of paper PMC10724198.
± gives the standard deviation of the averaged measurements.

tested on: Saccharomyces cerevisiae; assay: protein stability index of tFT-peptide fusion (C-terminal peptide) (PSI (0-1 scale)); higher = more stable (slower turnover); conditions: genetic background: wild type; temperature: 30 C
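Note: PSI is a weighted mean of sequencing reads over stability bins, variants kept only with over 10 reads, mCherry proximal and sfGFP distal, peptide attached via GGGS linker.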

Row | Sequence | protein stability index
1 | PVLLLLSLPRPL | 0.667 ± 0.014
2 | PVLLVWDLPAVL | 0.714 ± 0.086
3 | PVPADGPSPPQP | 0.721 ± 0.035
4 | PVPDDVTVLLSR | 0.804 ± 0.12
5 | PVPLEAPSPPPP | 0.671 ± 0.022
6 | PVPLPSSSPSPY | 0.663 ± 0.046
7 | PVPLTPRCPSVT | 0.6 ± 0.019
8 | PVPLVLSFLCDL | 0.686 ± 0.03
9 | PVPPAPASPPTG | 0.742 ± 0.06
10 | PVPPLPPRPPPL | 0.619 ± 0.11
11 | PVPPLRRFPPLF | 0.648 ± 0.036
12 | PVPPSARHSSPP | 0.66 ± 0.021
13 | PVPVFLLLFFSP | 0.496 ± 0.052
14 | PVSPLPGPPPPP | 0.7681 ± 0.0053
15 | PVSPPLSLASPS | 0.706 ± 0.047
16 | PVSRSVHIEDKR | 0.727 ± 0.052
17 | PVVLGVGMEGIS | 0.7137 ± 0.0068
18 | PVWVDRGVLWSV | 0.716 ± 0.094
19 | PWFGSSPRLAAC | 0.7346 ± 0.0073
20 | PWGGMNWGGLSV | 0.745 ± 0.073
21 | PWKDPSLLLHRS | 0.743 ± 0.061
22 | PWPFKQHEHRRA | 0.847 ± 0.015
23 | PYIKDRYSPANN | 0.781 ± 0.062

Row | Sequence | protein stability index
24 | PYLLPPFLPSPP | 0.732 ± 0.029
25 | PYSPPYSLTSLS | 0.708 ± 0.075
26 | PYVAFMLPSPWQ | 0.672 ± 0.033
27 | QAHRHASPKTRT | 0.654 ± 0.032
28 | QAVQTLTAETKH | 0.63 ± 0.051
29 | QAVVGRVRLRGE | 0.6775 ± 0.0017
30 | QCFRYSVFVGRG | 0.63 ± 0.019
31 | QCIRLFCPLVSL | 0.587 ± 0.014
32 | QDTRRRAPYPPS | 0.673 ± 0.051
33 | QEPDARYGPGRT | 0.692 ± 0.12
34 | QESGPEAGIPPL | 0.7222 ± 0.003
35 | QFTSGCPAYLLK | 0.678 ± 0.0079
36 | QGEARRPPSPGR | 0.638 ± 0.19
37 | QGGCAATRARGS | 0.631 ± 0.0033
38 | QGLSHVVTCLFG | 0.721 ± 0.07
39 | QGRLRLSLLVSG | 0.526 ± 0.0048
40 | QGRYPLNVLIRI | 0.57 ± 0.057
41 | QGTHRGSGGVTE | 0.716 ± 0.023
42 | QGVPNEPLWARP | 0.72 ± 0.027
43 | QHTHNRLRAAQD | 0.678 ± 0.029
44 | QIKPSLGLDKPS | 0.683 ± 0.061
45 | QIQKINTKSKKN | 0.699 ± 0.021
46 | QIRRPRRFFYVS | 0.642 ± 0.17

Row | Sequence | protein stability index
47 | QIVDHCLVWLRG | 0.628 ± 0.0066
48 | QKISEKNISEKN | 0.7063 ± 0.0013
49 | QKKKIRKKKKTT | 0.685 ± 0.0074
50 | QKKKKKIKEHSK | 0.626 ± 0.031
51 | QKKRKKPGKWKS | 0.662 ± 0.022
52 | QKQQRIKQTAKK | 0.703 ± 0.048
53 | QKRIALNSQKNT | 0.688 ± 0.048
54 | QKRKKQNKDGGT | 0.716 ± 0.042
55 | QKSGELVKNVRI | 0.673 ± 0.035
56 | QKVNKDTRTSEF | 0.709 ± 0.014
57 | QLNGTVTRPGDF | 0.7 ± 0.036
58 | QLRPLSPLPPQP | 0.738 ± 0.029
59 | QLSLSTPAGRLI | 0.6886 ± 0.0068
60 | QLSRHCYQPSGG | 0.671 ± 0.0073
61 | QMKRPSCKGTCD | 0.679 ± 0.044
62 | QNEVWDACVGRC | 0.702 ± 0.017
63 | QNGNRPCCEKAW | 0.681 ± 0.021
64 | QNIRTELTSPRV | 0.6596 ± 0.0016
65 | QNKNPNRTEKSK | 0.701 ± 0.056
66 | QNRKELVERPKR | 0.702 ± 0.017
67 | QNTTESANWSIT | 0.696 ± 0.052
68 | QPALGNTNKYKN | 0.676 ± 0.049
69 | QPLPLPSPPPPA | 0.741 ± 0.058

Row | Sequence | protein stability index
70 | QPPSPSLFFPRV | 0.704 ± 0.016
71 | QPSDTSHPHQPS | 0.692 ± 0.028
72 | QPYRQAKNQRLP | 0.728 ± 0.02
73 | QQRHITHRKIRI | 0.6595 ± 0.0048
74 | QRARDSLVQTRH | 0.681 ± 0.032
75 | QRGGTWGALWEG | 0.671 ± 0.02
76 | QRMKHQKVTSNP | 0.732 ± 0.06
77 | QRRARVSDISVY | 0.634 ± 0.012
78 | QSAPWPSPLSFS | 0.718 ± 0.019
79 | QSNEHVRQSETS | 0.682 ± 0.03
80 | QSNQEETRQDGT | 0.687 ± 0.0084
81 | QSPPILVPSSDV | 0.686 ± 0.067
82 | QSRERDGSIRNP | 0.644 ± 0.021
83 | QTKSLLTPLLNL | 0.65 ± 0.018
84 | QTPNRTPIRPPP | 0.716 ± 0.0093
85 | QTSASSAALLRP | 0.622 ± 0.042
86 | QTVSISGVPDGF | 0.6669 ± 0.001
87 | QVAIEKTTHVQE | 0.637 ± 0.13
88 | QVFVRRSSPRVL | 0.666 ± 0.014
89 | QVRTWGGCWGRG | 0.674 ± 0.0083
90 | QVVLCCAIDKNT | 0.708 ± 0.082
91 | QWSNSRPVGLTG | 0.676 ± 0.017
92 | QYKKKEKKQNRT | 0.624 ± 0.1

Row | Sequence | protein stability index
93 | QYSDRQGGRATD | 0.708 ± 0.015
94 | QYSFFLRSPEVF | 0.512 ± 0.038
95 | RAALEAPGCIQV | 0.73316 ± 3e-05
96 | RAIGSRIIIWGL | 0.564 ± 0.011
97 | RALALVHRQRVG | 0.648 ± 0.096
98 | RALPLLPLPRLS | 0.66 ± 0.024
99 | RALPSPRSPLSI | 0.616 ± 0.041
100 | RAPDFYPTHPLA | 0.701 ± 0.057
101 | RAPRSPPPPALA | 0.77114 ± 0.00071
102 | RARRYNRQSTPT | 0.702 ± 0.023
103 | RASPFPAMSAQV | 0.684 ± 0.023
104 | RATTNKRIRVEL | 0.704 ± 0.011
105 | RCAQKSMALLSD | 0.68 ± 0.0097
106 | RCAWSEVFEGCG | 0.71 ± 0.021
107 | RCEGNGKRASTE | 0.632 ± 0.031
108 | RCGRGVAAEWLS | 0.668 ± 0.06
109 | RCLGSTCRFFTF | 0.7 ± 0.065
110 | RCNKETKNKDVL | 0.7348 ± 0.0054
111 | RCRCPHFLCRFS | 0.6165 ± 0.0049
112 | RCRKVSTISRFK | 0.7053 ± 0.002
113 | RCSFSYLPVIQV | 0.582 ± 0.006
114 | RCSKFRKFFKHR | 0.6565 ± 0.0031
115 | RCSNWFVGFCPF | 0.733 ± 0.062

Row | Sequence | protein stability index
116 | RCTQCFSPFSTD | 0.7221 ± 0.0052
117 | RCVFGFGGVVVV | 0.622 ± 0.073
118 | RCWEWADWPRDG | 0.764 ± 0.029
119 | RCYTLFLGRSRV | 0.68037 ± 0.00022
120 | RDGIMTDDKRIS | 0.707 ± 0.035
121 | RDILFIGINIYK | 0.585 ± 0.049
122 | RDLRGGIADSAG | 0.684 ± 0.086
123 | RDMCVFSGGSGV | 0.68 ± 0.048
124 | RDPERYAQLTAP | 0.776 ± 0.0086
125 | RDRAPLLNLACL | 0.689 ± 0.074
126 | RDRTVGLLEGTA | 0.695 ± 0.085
127 | RDSDSSLRHNSH | 0.682 ± 0.061
128 | REAGGSQVKRRL | 0.671 ± 0.12
129 | REDSGGVNWGRC | 0.692 ± 0.039
130 | REEMASGGCIIR | 0.6845 ± 0.0039
131 | REERSRQSLVKW | 0.675 ± 0.06
132 | REGYGVGRERGD | 0.649 ± 0.017
133 | REKEKMRVVGMT | 0.746 ± 0.036
134 | REKKDGKLSTTR | 0.761 ± 0.045
135 | REKKDKKNSKKI | 0.701 ± 0.022
136 | REMKGKLHEHRK | 0.6792 ± 0.0029
137 | RETGTSVEQVRT | 0.68 ± 0.036
138 | RETPPALRSFPV | 0.613 ± 0.26

Row | Sequence | protein stability index
139 | REVLYCTSMLQD | 0.707 ± 0.038
140 | REVSGLTIRMVR | 0.659 ± 0.03
141 | REWCSGGPCAAS | 0.721 ± 0.043
142 | REYGVKRIEIKQ | 0.682 ± 0.04
143 | RFAEEDFIVERT | 0.727 ± 0.019
144 | RFAGCFSFFRAA | 0.683 ± 0.035
145 | RFALSCITPCIL | 0.661 ± 0.069
146 | RFAWLPAPGRIV | 0.647 ± 0.015
147 | RFCIARGSLLDY | 0.554 ± 0.025
148 | RFCVTASDLREF | 0.751 ± 0.057
149 | RFDFSVTPHLGF | 0.668 ± 0.036
150 | RFEFFHLVSWLL | 0.644 ± 0.052
151 | RFGRGAGGGLGG | 0.6763 ± 0.0013
152 | RFGSFVSISRVG | 0.603 ± 0.14
153 | RFGWRRGRVGSS | 0.734 ± 0.038
154 | RFLPALSRSLPS | 0.782 ± 0.11
155 | RFPFSFSGFFLL | 0.5532 ± 0.0033
156 | RFPPFSFAPCLI | 0.712 ± 0.035
157 | RFPPWVSSIFAF | 0.494 ± 0.0082
158 | RFPSSCAPLSPY | 0.621 ± 0.029
159 | RFPVLRFPASFL | 0.669 ± 0.048
160 | RGAGRTHCLRAP | 0.6613 ± 0.0055
